According to US10188706B2, “Plasminogen activator mutants as anti-fibrinolytic agents” (HADASIT MEDICAL RESEARCH SERVICES & DEVELOPMENT LIMITED, priority 2012, dated 2019):
Entries after “also recorded” stand apart in the source; their conditions may differ.

Tests used:
tPA = assay: Plasminogen activator activity, chromogenic assay without fibrin, activation by tPA; format: biochemical, human; conditions: FIG. 2D
Protocol: (§1) Plasminogen Activator Activity
(§2) Plasminogen activator activity was determined by adding tPA (50 nM) or uPA (20 nM), to a reaction mixture containing Glu-plasminogen and the plasmin chromogenic substrate Spectrazyme PL (100 μM) in phosphate-buffered saline (PBS) at 37° C., and the light absorbance at 405 nm was measured continuously over time. The initial velocities of plasmin generation at the different conditions were calculated from the change in the A405 nm over time. The initial velocity of the reaction at each plasminogen concentration was obtained by calculating the change in the rate of A405 over different time intervals and the results were expressed as the change in optical density (ΔOD) per minute, which represents the slope of the initial velocity of plasminogen activation (Higazi A et al., J Biol Chem. (1995), 270(29):17375-80).

reteplase = reteplase (Homo sapiens, UniProt P00750); assay: Fibrinolysis assay in human plasma derived clots, lysis by reteplase; format: biochemical; conditions: reteplase 20 nM, mutant 10 nM, FIG. 2B
Protocol: (§3) Fibrinolysis Assay in Human Plasma Derived Clots
(§4) Clots were formed by placing human plasma (200 μL) in 16-mm diameter tissue culture wells flowed by adding thrombin (0.4 U/mL final concentration). Fibrinolysis was measured as described in Higazi A A et al., Blood (1998), 92(6):2075-83). Briefly, 10 μL tPA or uPA were placed over the plasma clots for 2 hours at 37° C., photographed and the diameter of the wholes were determined.

WT mice subjected to CHI = assay: Closed head injury (CHI) model of TBI in WT mice; format: in vivo, mouse; conditions: for neuroprotection (neurological severity score, NSS): given 2 hrs after CHI
Protocol: Eight to twelve weeks old C57 mice obtained from Harlan, Israel. Mice were administered standard laboratory chow and water ad libitum, and kept in controlled temperature and light conditions. Animal experiments were carried out according to the guidelines of the Hebrew University-Institutional Committee for Care and Use of Laboratory Animals, and with the committee's approval.
Closed Head Injury (CHI) Model
Head trauma was induced by using a modified weight-drop device, as previously described (Chen Y. et al. (1996) J. Neurotrauma, 13:557-568). Briefly, after induction of ether anesthesia, a midline longitudinal incision was made, the skin was retracted and the skull was exposed. The left anterior frontal area was identified and a Teflon tipped cone (2-mm diameter) was placed 1 mm lateral to the midline, in the midcoronal plane. The head was held in place manually and a 75-g weight was dropped on the cone from a height of 18 cm, resulting in focal injury to the left hemisphere. After trauma, the mice received supporting oxygenation with 95% 02 for no longer than 2 min and were then returned to their cages. In sham controls only anesthesia and skin incision were carried out.

uPA [1] = molecular target: T1, uPA (Homo sapiens, UniProt P00749); assay: Plasminogen activator activity, chromogenic assay without fibrin, activation by uPA; format: biochemical; conditions: FIG. 2D
T1 construct: Single-chain urokinase (uPA) was purified, characterized as previously reported; made in house
Protocol: as §1, §2

uPA [2] = molecular target: T1, uPA; assay: Fibrinolysis assay in human plasma derived clots, lysis by uPA; format: biochemical; conditions: uPA 50 nM; mutant 50 nM; FIG. 2A, 2B
Protocol: as §3, §4

WT-tPA = assay: Fibrinolysis assay in human plasma derived clots, lysis by WT-tPA; format: biochemical
Protocol: as §3, §4

[3] = mutant 100 nM added together with TA

Chain of WT-tPA (P00750 36-562): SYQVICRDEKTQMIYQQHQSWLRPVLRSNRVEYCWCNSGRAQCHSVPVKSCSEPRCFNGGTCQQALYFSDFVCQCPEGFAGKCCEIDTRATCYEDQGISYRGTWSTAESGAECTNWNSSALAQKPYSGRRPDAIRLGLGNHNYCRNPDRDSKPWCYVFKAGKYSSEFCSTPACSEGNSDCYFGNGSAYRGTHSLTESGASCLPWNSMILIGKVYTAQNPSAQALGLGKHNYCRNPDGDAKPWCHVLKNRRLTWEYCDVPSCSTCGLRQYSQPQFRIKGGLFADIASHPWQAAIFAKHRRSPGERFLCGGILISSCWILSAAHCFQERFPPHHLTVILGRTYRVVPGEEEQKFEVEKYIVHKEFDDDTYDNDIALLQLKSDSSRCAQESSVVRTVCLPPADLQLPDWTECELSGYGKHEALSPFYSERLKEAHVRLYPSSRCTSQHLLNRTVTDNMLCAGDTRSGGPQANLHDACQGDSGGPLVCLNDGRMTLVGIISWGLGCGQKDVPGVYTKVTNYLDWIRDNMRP

B1: tPA-S^481A-DS: tPA double mutant, Ser481 to Ala and KHRR299-302 to AAAA (PAI-1 docking site); SEQ ID NO. 2 or 13 (protein, listed as Homo sapiens)
chain: GARSYQVICRDEKTQMIYQQHQSWLRPVLRSNRVEYCWCNSGRAQCHSVPVKSCSEPRCFNGGTCQQALYFSDFVCQCPEGFAGKCCEIDTRATCYEDQGISYRGTWSTAESGAECTNWNSSALAQKPYSGRRPDAIRLGLGNHNYCRNPDRDSKPWCYVFKAGKYSSEFCSTPACSEGNSDCYFGNGSAYRGTHSLTESGASCLPWNSMILIGKVYTAQNPSAQALGLGKHNYCRNPDGDAKPWCHVLKNRRLTWEYCDVPSCSTCGLRQYSQPQFRIKGGLFADIASHPWQAAIFAAAAASPGERFLCGGILISSCWILSAAHCFQERFPPHHLTVILGRTYRVVPGEEEQKFEVEKYIVHKEFDDDTYDNDIALLQLKSDSSRCAQESSVVRTVCLPPADLQLPDWTECELSGYGKHEALSPFYSERLKEAHVRLYPSSRCTSQHLLNRTVTDNMLCAGDTRSGGPQANLHDACQGDAGGPLVCLNDGRMTLVGIISWGLGCGQKDVPGVYTKVTNYLDWIRDNMRP
notes: tPA double mutant, Ser481 to Ala and KHRR299-302 to AAAA (PAI-1 docking site); 2 or 13
tPA; [3]
  plasminogen activation by tPA in the absence of fibrin, in the presence of TA: inhibited the plasminogen activation induced by tPA
tPA; plasminogen 500 nM, WT-tPA 50 nM, mutants 100 nM or TA 200 nM alone
  plasminogen activation by tPA in the absence of fibrin (change in OD per minute): Neither tPA-S^481A nor tPA-S^481A-DS inhibited
reteplase
  clot lysis induced by reteplase: inhibit the clot lysis induced by reteplase
WT mice subjected to CHI; WT mice given WT-tPA 5 mg/kg immediately after CHI plus equimolar mutant
  intracerebral hemorrhage increased by injected WT-tPA post CHI: could be inhibited
WT mice subjected to CHI; WT mice, 1 mg/kg IV, measured 2 hours after CHI, FIG. 4A, 1 mg/kg
  plasma levels of d-Dimers post CHI: significantly attenuated the increase in d-Dimers; also recorded: had the same effect on d-Dimers and post TBI thrombocytopenia
WT mice subjected to CHI; WT mice, 1 mg/kg IV, measured 2 hours after CHI, FIG. 4B, 1 mg/kg
  platelet counts / thrombocytopenia post CHI: prevented the development of thrombocytopenia; also recorded: had the same effect on d-Dimers and post TBI thrombocytopenia
WT mice subjected to CHI; WT mice, IV after CHI, CSF obtained 2 hours after CHI, tested on plasma derived clots
  CSF fibrinolytic activity post CHI: inhibited CSF fibrinolytic activity
WT mice subjected to CHI; WT mice, IV immediately after or 2 hrs after CHI, Hgb at 2 or 8 hrs, MRI at 24 hrs
  intracerebral hemorrhage (MRI, extravasation of Hgb) post CHI: significantly attenuated the expansion of intracerebral hemorrhage; also recorded: decreased ICH to the same extent as tPA-S^481A
WT mice subjected to CHI; combination in optimal concentrations, FIG. 3B
  inhibition of intracerebral hemorrhage compared with combination of TA and aprotinin: comparable to the inhibition induced by a combination of TA and aprotinin
WT mice subjected to CHI; FIG. 5
  neuroprotection (neurological severity score, NSS): the difference in neuroprotection provided by the two tPA variants vanished
WT mice subjected to CHI; FIG. 5, listed as tPA^Ser481Ala-DS
  neuroprotection (neurological severity score, NSS): lower neurological severity scores (NSS)
WT mice subjected to CHI; given IV immediately after CHI, 1 mg/kg, FIG. 5
  neuroprotection (neurological severity score, NSS, 24 hours after CHI): provided less neuroprotection than tPA-S^481A
WT mice subjected to CHI; optimal concentrations of TA or aprotinin, FIG. 3B
  potency as inhibitor of intracerebral hemorrhage compared with TA or aprotinin: more potent inhibitors of intracerebral hemorrhage than optimal concentrations of TA or aprotinin
uPA [1]; [3]
  plasminogen activation by uPA in the absence of fibrin, in the presence of TA: inhibited the activation of plasminogen by uPA
uPA [1]; plasminogen 500 nM, uPA 20 nM, mutants 100 nM or TA 200 nM alone
  plasminogen activation by uPA in the absence of fibrin (change in OD per minute): Neither tPA-S^481A nor tPA-S^481A-DS inhibited
uPA [2]
  lysis of human plasma derived clots by uPA: Identical anti-fibrinolytic activity; also recorded: inhibited
WT-tPA; TA tested at its maximal inhibitory concentration, FIG. 2B
  potency as inhibitor of fibrinolysis compared with TA: more potent inhibitors of fibrinolysis than TA
WT-tPA; WT-tPA 20 nM, mutant 50 nM, FIG. 2A, 2B
  lysis of human plasma derived clots by WT-tPA: Identical anti-fibrinolytic activity; also recorded: inhibited
